To fix the notation:
B1: GpH7-A5/GpH7-B3 variant E269_13S/GpL16-k0 (antibody, human IgG1, kappa)
heavy 1: not shown
heavy 2: not shown
light: DIVMTQSPLSLPVTPGEPASISCQASESLVHSNRNTYLHWYLQKPGQSPQLLIYKVSNRFSGVPDRFSGSGSGTDFTLKISRVEAEDVGVYYCSQNTHVPPTFGQGTKVEIERTVAAPSVFIFPPSDEQLKSGTASVVCLLNNFYPREAKVQWKVDNALQSGNSQESVTEQDSKDSTYSLSSTLTLSKADYEKHKVYACEVTHQGLSSPVTKSFNRGEC
notes: Heterodimerized anti-glypican-3 IgG1 (He Ab); mutation in the B3 H chain only; also called He Ab
B2: GpH7-A5/GpH7-B3 variant Q295_11K/GpL16-k0 (antibody, human IgG1, kappa)
heavy 1: not shown
heavy 2: not shown
light: B1 light
notes: as for B1
B3: GpH7-A5/GpH7-B3 variant Q295_12R/GpL16-k0 (antibody, human IgG1, kappa)
heavy 1: not shown
heavy 2: not shown
light: B1 light
notes: as for B1
B4: GpH7-A5/GpH7-B3 variant E269_19Q/GpL16-k0 (antibody, human IgG1, kappa)
heavy 1: not shown
heavy 2: not shown
light: B1 light
notes: as for B1
B5: GpH7-A5/GpH7-B3 variant P271_20W/GpL16-k0 (antibody, human IgG1, kappa)
heavy 1: not shown
heavy 2: not shown
light: B1 light
notes: as for B1
B6: GpH7-A5/GpH7-B3 variant E269_16H/GpL16-k0 (antibody, human IgG1, kappa)
heavy 1: not shown
heavy 2: not shown
light: B1 light
notes: as for B1
B7: GpH7-A5/GpH7-B3 variant Q295_03V/GpL16-k0 (antibody, human IgG1, kappa)
heavy 1: not shown
heavy 2: not shown
light: B1 light
notes: as for B1
B8: GpH7-A5/GpH7-B3 variant Q295_05P/GpL16-k0 (antibody, human IgG1, kappa)
heavy 1: not shown
heavy 2: not shown
light: B1 light
notes: as for B1
B9: GpH7-A5/GpH7-B3 variant Y300_03V/GpL16-k0 (antibody, human IgG1, kappa)
heavy 1: not shown
heavy 2: not shown
light: B1 light
notes: as for B1
B10: GpH7-A5/GpH7-B3 variant S298_14T/GpL16-k0 (antibody, human IgG1, kappa)
heavy 1: not shown
heavy 2: not shown
light: B1 light
notes: as for B1
B11: GpH7-A5/GpH7-B3 variant Q295_13S/GpL16-k0 (antibody, human IgG1, kappa)
heavy 1: not shown
heavy 2: not shown
light: B1 light
notes: as for B1
B12: GpH7-A5/GpH7-B3 variant E269_18N/GpL16-k0 (antibody, human IgG1, kappa)
heavy 1: not shown
heavy 2: not shown
light: B1 light
notes: as for B1
B13: GpH7-A5/GpH7-B3 variant S298_07I/GpL16-k0 (antibody, human IgG1, kappa)
heavy 1: not shown
heavy 2: not shown
light: B1 light
notes: as for B1
B14: GpH7-A5/GpH7-B3 variant S298_19Q/GpL16-k0 (antibody, human IgG1, kappa)
heavy 1: not shown
heavy 2: not shown
light: B1 light
notes: as for B1
B15: GpH7-A5/GpH7-B3 variant S298_16H/GpL16-k0 (antibody, human IgG1, kappa)
heavy 1: not shown
heavy 2: not shown
light: B1 light
notes: as for B1
B16: GpH7-A5/GpH7-B3 variant S298_10E/GpL16-k0 (antibody, human IgG1, kappa)
heavy 1: not shown
heavy 2: not shown
light: B1 light
notes: as for B1
B17: GpH7-A5/GpH7-B3 variant P271_15Y/GpL16-k0 (antibody, human IgG1, kappa)
heavy 1: not shown
heavy 2: not shown
light: B1 light
notes: as for B1
B18: GpH7-A5/GpH7-B3 variant E269_20W/GpL16-k0 (antibody, human IgG1, kappa)
heavy 1: not shown
heavy 2: not shown
light: B1 light
notes: as for B1
B19: GpH7-A5/GpH7-B3 variant S298_03V/GpL16-k0 (antibody, human IgG1, kappa)
heavy 1: not shown
heavy 2: not shown
light: B1 light
notes: as for B1
B20: GpH7-A5/GpH7-B3 variant Y300_06M/GpL16-k0 (antibody, human IgG1, kappa)
heavy 1: not shown
heavy 2: not shown
light: B1 light
notes: as for B1
B21: GpH7-A5/GpH7-B3 variant Q295_16H/GpL16-k0 (antibody, human IgG1, kappa)
heavy 1: not shown
heavy 2: not shown
light: B1 light
notes: as for B1
B22: GpH7-A5/GpH7-B3 variant S298_18N/GpL16-k0 (antibody, human IgG1, kappa)
heavy 1: not shown
heavy 2: not shown
light: B1 light
notes: as for B1
B23: GpH7-A5/GpH7-B3 variant Y300_01G/GpL16-k0 (antibody, human IgG1, kappa)
heavy 1: not shown
heavy 2: not shown
light: B1 light
notes: as for B1
B24: GpH7-A5/GpH7-B3 variant S298_20W/GpL16-k0 (antibody, human IgG1, kappa)
heavy 1: not shown
heavy 2: not shown
light: B1 light
notes: as for B1
B25: GpH7-A5/GpH7-B3 variant Y300_02A/GpL16-k0 (antibody, human IgG1, kappa)
heavy 1: not shown
heavy 2: not shown
light: B1 light
notes: as for B1
B26: GpH7-A5/GpH7-B3 variant Q295_07I/GpL16-k0 (antibody, human IgG1, kappa)
heavy 1: not shown
heavy 2: not shown
light: B1 light
notes: as for B1
B27: GpH7-A5/GpH7-B3 variant E269_15Y/GpL16-k0 (antibody, human IgG1, kappa)
heavy 1: not shown
heavy 2: not shown
light: B1 light
notes: as for B1
B28: GpH7-A5/GpH7-B3 variant E269_14T/GpL16-k0 (antibody, human IgG1, kappa)
heavy 1: not shown
heavy 2: not shown
light: B1 light
notes: as for B1
B29: GpH7-A5/GpH7-B3 variant Q295_20W/GpL16-k0 (antibody, human IgG1, kappa)
heavy 1: not shown
heavy 2: not shown
light: B1 light
notes: as for B1

The target of the first assay is T1, FcγRIIa H (human, UniProt P12318 34-217).
T1 construct: extracellular domain; also called FcγRIIa type H; 2aH
T1 sequence (looked up): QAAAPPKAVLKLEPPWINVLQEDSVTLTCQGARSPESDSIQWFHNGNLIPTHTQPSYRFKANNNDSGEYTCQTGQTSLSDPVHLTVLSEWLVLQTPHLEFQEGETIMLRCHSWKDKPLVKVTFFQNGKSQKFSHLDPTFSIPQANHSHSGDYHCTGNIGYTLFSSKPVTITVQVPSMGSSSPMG
In words: ratio of He/Con_2aH to He/Con_2b (FcγRIIb); SPR.
In the case of B1, the “He_2aH/2b (IIaH/IIb ratio)” value turned out to be 1.46.
Same read-out and setting: to B2 belongs 1.27; to B3, 1.29; to B4, 1.81.
Same read-out and setting: to B5 belongs 1.33; to B6, 1.53; to B7, 1.22.
As for B8, the “He_2aH/2b (IIaH/IIb ratio)” value worked out at 1.53.
Turning to B9, the “He_2aH/2b (IIaH/IIb ratio)” value was 1.33.
B10: the “He_2aH/2b (IIaH/IIb ratio)” value came to 1.26.
On to B11, for which the “He_2aH/2b (IIaH/IIb ratio)” value came to 1.22.
Still for that read-out and setting: to B12 belongs 1.44; to B13, 1.23.
Same read-out and setting: for B14 the value was 1.24.
For B15, the “He_2aH/2b (IIaH/IIb ratio)” value was determined as 1.29.
Still for that read-out and setting: to B16 belongs 1.22; to B17, 1.24; to B18, 1.43.
Consider B19, for which the “He_2aH/2b (IIaH/IIb ratio)” value came to 1.32.
Still for that read-out and setting: for B20 the value was 1.24; for B21, 1.25.
Consider B22, for which the “He_2aH/2b (IIaH/IIb ratio)” value was 1.28.
On to B23, for which the “He_2aH/2b (IIaH/IIb ratio)” value was found to be 1.54.
With B24, the “He_2aH/2b (IIaH/IIb ratio)” value came to 1.21.
As to B25, the “He_2aH/2b (IIaH/IIb ratio)” value stood at 1.35.
Still for that read-out and setting: to B26 belongs 1.21; to B27, 1.57; to B28, 1.37.
Same read-out and setting: for B29 the value was 1.25.

The target of another assay is T1, FcγRIIa H. In words: SPR (Biacore), captured antibody, FcγR as analyte; GpH7-A5/GpH7-B3/GpL16-k0 = 100. The procedure: (§1) The heterodimerized antibodies He Abs in which one of the H chains was introduced with an alteration were assayed for their binding activities to each activating FcγR and inhibitory FcγR according to the method described in Example 4. […] The activating FcγRs in FIGS. 26, 27, 28, and 29 are FcγRIa, FcγRIIa (R), FcγRIIa (H), and FcγRIIIa, respectively.
(§2) Analysis of interaction between objective antibody and the FcγR was carried out using Biacore T100 (GE Healthcare). HBS-EP+ (GE Healthcare) was used as the running buffer, and the measurement temperature was set to 25° C. Chips produced by immobilizing the antigen peptide by the amine coupling method to a Series S Sencor Chip CM5 (GE Healthcare), or alternatively, chips produced by allowing preliminarily biotinylated antigen peptides to interact with and immobilize onto a Series S Sensor Chip SA (certified) (GE Healthcare) were used. Antibodies of interest were captured onto an antigen peptide-immobilized chip, and allowed to interact to each FcγR diluted with running buffer. To regenerate and repeatedly use the chip, the antibodies captured on the chip were washed off by reacting 10 mM glycine-HCl, pH 1.5.
(Surface plasmon resonance follows binding to a sensor surface in real time, without labels.)
In the case of B1, the “He/Con_2aH (relative binding)” value stood at 70%.
On the same count and under the same terms, to B2 belongs 89.4%; to B3, 84.1%; to B4, 80.2%.
For B5, the “He/Con_2aH (relative binding)” value was found to be 77.4%.
Consider B6, for which the “He/Con_2aH (relative binding)” value is 59%.
Still for that read-out and setting: to B7 belongs 92%; to B8, 103%.
With B9, the “He/Con_2aH (relative binding)” value was found to be 98%.
Still for that read-out and setting: to B10 belongs 98.5%.
The same measure, in the same setting: to B11 belongs 69.4%.
For B12, the “He/Con_2aH (relative binding)” value was 64.4%.
In the case of B13, the “He/Con_2aH (relative binding)” value turned out to be 86.9%.
Consider B14, for which the “He/Con_2aH (relative binding)” value came out at 91%.
As for B15, the “He/Con_2aH (relative binding)” value came to 82.1%.
B16: the “He/Con_2aH (relative binding)” value is 58%.
Same read-out and setting: for B17 the value was 64.6%; for B18, 60.9%.
The same measure, in the same setting: to B19 belongs 85.1%.
Turning to B20, the “He/Con_2aH (relative binding)” value came out at 105%.
Still for that read-out and setting: for B21 the value was 78.6%; for B22, 61.6%; for B23, 74.4%.
In the case of B24, the “He/Con_2aH (relative binding)” value worked out at 49.9%.
In the case of B25, the “He/Con_2aH (relative binding)” value was 93.5%.
In the case of B26, the “He/Con_2aH (relative binding)” value was found to be 102%.
Still for that read-out and setting: for B27 the value was 70.4%.
Turning to B28, the “He/Con_2aH (relative binding)” value amounted to 69.6%.
Take B29: the “He/Con_2aH (relative binding)” value was 55.6%.

In another assay the target is T2, FcγRIIb (human, UniProt P31994 43-217).
T2 construct: extracellular domain; also called 2b; FcgRIIb
T2 sequence (looked up): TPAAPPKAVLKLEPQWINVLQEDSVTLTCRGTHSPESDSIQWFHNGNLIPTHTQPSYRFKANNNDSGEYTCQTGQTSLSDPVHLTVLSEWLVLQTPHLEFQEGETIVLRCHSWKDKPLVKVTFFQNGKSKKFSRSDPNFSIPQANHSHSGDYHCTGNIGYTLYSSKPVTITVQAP
Described as above. The procedure: as §1, §2
Turning to B1, the “He/Con_2b (relative binding)” value stood at 47.8%.
On the same count and under the same terms, for B2 the value was 70.4%.
Turning to B3, the “He/Con_2b (relative binding)” value is 65.2%.
Turning to B4, the “He/Con_2b (relative binding)” value turned out to be 44.3%.
Still for that read-out and setting: to B5 belongs 58.1%; to B6, 38.5%.
B7: the “He/Con_2b (relative binding)” value was determined as 75.7%.
Still for that read-out and setting: for B8 the value was 67.5%; for B9, 73.9%.
Same read-out and setting: for B10 the value was 77.9%.
On the same count and under the same terms, for B11 the value was 56.9%; for B12, 44.8%; for B13, 70.6%.
For the molecule B14, the “He/Con_2b (relative binding)” value came out at 73.3%.
For the molecule B15, the “He/Con_2b (relative binding)” value came to 63.5%.
Take B16: the “He/Con_2b (relative binding)” value is 47.6%.
Still for that read-out and setting: for B17 the value was 52.3%; for B18, 42.5%; for B19, 64.5%.
Still for that read-out and setting: to B20 belongs 84.3%.
As to B21, the “He/Con_2b (relative binding)” value is 62.7%.
For B22, the “He/Con_2b (relative binding)” value was determined as 48.1%.
Consider B23, for which the “He/Con_2b (relative binding)” value turned out to be 48.4%.
For B24, the “He/Con_2b (relative binding)” value came to 41.1%.
Still for that read-out and setting: for B25 the value was 69.2%.
For the molecule B26, the “He/Con_2b (relative binding)” value came out at 84.3%.
Still for that read-out and setting: to B27 belongs 44.7%.
Same read-out and setting: to B28 belongs 50.6%; to B29, 44.4%.

Source of the values: patent publication US20150344570A1 (published 2015).
